IntAct's records for PubMed 22238662

B1: Adhesion G-protein coupled receptor G1 (Mus musculus), Q8K209 (parent)
chain: MAVQVLRQMVYFLLSLFSLVQGAHSGSPREDFRFCGQRNQTQQSTLHYDQSSEPHIFVWNTEETLTIRAPFLAAPDIPRFFPEPRGLYHFCLYWSRHTGRLHLRYGKHDYLLSSQASRLLCFQKQEQSLKQGAPLIATSVSSWQIPQNTSLPGAPSFIFSFHNAPHKVSHNASVDMCDLKKELQQLSRYLQHPQKAAKRPTAAFISQQLQSLESKLTSVSFLGDTLSFEEDRVNATVWKLPPTAGLEDLHIHSQKEEEQSEVQAYSLLLPRAVFQQTRGRRRDDAKRLLVVDFSSQALFQDKNSSQVLGEKVLGIVVQNTKVTNLSDPVVLTFQHQPQPKNVTLQCVFWVEDPASSSTGSWSSAGCETVSRDTQTSCLCNHLTYFAVLMVSSTEVEATHKHYLTLLSYVGCVISALACVFTIAAYLCSRRKSRDYTIKVHMNLLSAVFLLDVSFLLSEPVALTGSEAACRTSAMFLHFSLLACLSWMGLEGYNLYRLVVEVFGTYVPGYLLKLSIVGWGFPVFLVTLVALVDVNNYGPIILAVRRTPERVTYPSMCWIRDSLVSYVTNLGLFSLVFLFNLAMLATMVVQILRLRPHSQNWPHVLTLLGLSLVLGLPWALVFFSFASGTFQLVILYLFSIITSFQGFLIFLWYWSMRFQAQGGPSPLKNNSDSAKLPISSGSTSSSRI

Variants of: B1
Conditions: with co3a1_mouse Col3a1, P08121
Sequence of co3a1_mouse Col3a1, P08121 (P08121 whole entry): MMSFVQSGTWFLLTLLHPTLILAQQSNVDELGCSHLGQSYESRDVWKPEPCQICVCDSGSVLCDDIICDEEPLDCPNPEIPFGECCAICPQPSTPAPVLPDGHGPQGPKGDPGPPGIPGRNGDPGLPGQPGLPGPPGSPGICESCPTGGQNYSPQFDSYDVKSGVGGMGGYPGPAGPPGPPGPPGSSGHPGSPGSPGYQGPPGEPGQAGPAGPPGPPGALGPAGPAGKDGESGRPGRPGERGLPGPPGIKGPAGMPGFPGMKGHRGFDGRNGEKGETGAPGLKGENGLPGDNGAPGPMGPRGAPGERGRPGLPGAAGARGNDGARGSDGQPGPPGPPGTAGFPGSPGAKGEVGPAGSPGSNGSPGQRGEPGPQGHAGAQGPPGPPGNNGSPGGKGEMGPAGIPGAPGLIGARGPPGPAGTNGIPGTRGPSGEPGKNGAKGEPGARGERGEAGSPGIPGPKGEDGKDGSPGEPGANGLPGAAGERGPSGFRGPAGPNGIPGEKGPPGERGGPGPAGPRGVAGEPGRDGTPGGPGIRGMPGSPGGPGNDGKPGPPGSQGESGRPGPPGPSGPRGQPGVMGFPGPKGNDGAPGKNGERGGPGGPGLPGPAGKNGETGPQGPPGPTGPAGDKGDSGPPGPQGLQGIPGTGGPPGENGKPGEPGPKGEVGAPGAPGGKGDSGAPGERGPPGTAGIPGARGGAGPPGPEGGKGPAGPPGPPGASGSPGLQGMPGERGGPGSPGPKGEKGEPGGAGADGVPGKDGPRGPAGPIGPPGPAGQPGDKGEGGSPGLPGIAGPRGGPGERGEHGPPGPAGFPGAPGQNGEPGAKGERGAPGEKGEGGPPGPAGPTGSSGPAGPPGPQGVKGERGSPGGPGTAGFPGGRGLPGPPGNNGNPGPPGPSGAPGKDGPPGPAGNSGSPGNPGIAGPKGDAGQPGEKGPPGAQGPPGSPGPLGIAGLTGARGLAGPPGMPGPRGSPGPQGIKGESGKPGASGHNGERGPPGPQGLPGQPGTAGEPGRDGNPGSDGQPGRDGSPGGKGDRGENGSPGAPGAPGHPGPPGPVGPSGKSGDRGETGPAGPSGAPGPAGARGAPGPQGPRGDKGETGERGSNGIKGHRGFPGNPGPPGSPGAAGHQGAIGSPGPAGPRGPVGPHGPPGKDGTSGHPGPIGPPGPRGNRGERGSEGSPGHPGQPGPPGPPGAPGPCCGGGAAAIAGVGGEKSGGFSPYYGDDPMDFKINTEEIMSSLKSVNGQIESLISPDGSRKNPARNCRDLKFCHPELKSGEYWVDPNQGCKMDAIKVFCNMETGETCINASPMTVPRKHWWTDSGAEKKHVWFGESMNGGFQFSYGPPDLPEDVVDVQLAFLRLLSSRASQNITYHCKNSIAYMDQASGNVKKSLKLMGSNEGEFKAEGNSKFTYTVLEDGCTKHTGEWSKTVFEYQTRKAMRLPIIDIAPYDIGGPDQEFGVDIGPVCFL

Variant | effect of a mutation on the interaction
R38W | disrupting interaction
R38Q | disrupting interaction

Next, values leading:

effect of a mutation on the interaction | Variant
disrupting interaction | C91S
disrupting interaction | Y88C
